Data as given in patent US20210032299A1 (Eli Lilly, published 2021).
Starred links: 1 amine or outer side, 2 acyl side, 3 side chain; linkers in the order of their positions; H or OH if unused. Non-standard residues stand in square brackets, D forms with d. Groups on a side chain read outwards from the residue. No end group written: not given here. *: point of attachment. C20 diacid = O=C(O)CCCCCCCCCCCCCCCCCCC(=O)*; αMePhe(2-F) = C[C@](N)(Cc1ccccc1F)C(=O)O; γGlu = O=C(O)[C@H](CCC(=O)[*:2])N[*:1]; αMeF = C[C@](N)(Cc1ccccc1)C(=O)O; 4Pal = N[C@@H](Cc1ccncc1)C(=O)O; αMeL = CC(C)C[C@](C)(N)C(=O)O; AEEA = NCCOCCOCC(=O)O; Aib = CC(C)(N)C(=O)O

B1: Example 54 (peptide)
peptide: Y[Aib]EGTFISDYSI[αMeL]LDKK([AEEA-AEEA-γGlu-C20 diacid])HQ[Aib]DFVEWLLAGGPSSGAPPPS-NH2
modifications: N-terminus assumed
SMILES: CC[C@H](C)[C@H](NC(=O)[C@H](Cc1ccccc1)NC(=O)[C@@H](NC(=O)CNC(=O)[C@H](CCC(=O)O)NC(=O)C(C)(C)NC(=O)[C@@H](N)Cc1ccc(O)cc1)[C@@H](C)O)C(=O)N[C@@H](CO)C(=O)N[C@@H](CC(=O)O)C(=O)N[C@@H](Cc1ccc(O)cc1)C(=O)N[C@@H](CO)C(=O)N[C@H](C(=O)N[C@@](C)(CC(C)C)C(=O)N[C@@H](CC(C)C)C(=O)N[C@@H](CC(=O)O)C(=O)N[C@@H](CCCCN)C(=O)N[C@@H](CCCCNC(=O)COCCOCCNC(=O)COCCOCCNC(=O)CC[C@H](NC(=O)CCCCCCCCCCCCCCCCCCC(=O)O)C(=O)O)C(=O)N[C@@H](Cc1c[nH]cn1)C(=O)N[C@@H](CCC(N)=O)C(=O)NC(C)(C)C(=O)N[C@@H](CC(=O)O)C(=O)N[C@@H](Cc1ccccc1)C(=O)N[C@H](C(=O)N[C@@H](CCC(=O)O)C(=O)N[C@@H](Cc1c[nH]c2ccccc12)C(=O)N[C@@H](CC(C)C)C(=O)N[C@@H](CC(C)C)C(=O)N[C@@H](C)C(=O)NCC(=O)NCC(=O)N1CCC[C@H]1C(=O)N[C@@H](CO)C(=O)N[C@@H](CO)C(=O)NCC(=O)N[C@@H](C)C(=O)N1CCC[C@H]1C(=O)N1CCC[C@H]1C(=O)N1CCC[C@H]1C(=O)N[C@@H](CO)C(N)=O)C(C)C)[C@@H](C)CC
B2: Example 55 (peptide)
peptide: YXEGTXISDYSIXLDKKHQXDFVEXLLAGGPSSGAPPPS
modifications: Aib2; Iva6; αMeL13; K17((2-[2-(2-Amino-ethoxy)-ethoxy]-acetyl)2-(γ-Glu)-CO-(CH2)18-CO2H); Aib20; 4-Pal25; C-terminal amide
B3: Example 53 (peptide)
peptide: Y[Aib]EGTFISDYSI[αMeL]LDKK([AEEA-AEEA-γGlu-C20 diacid])HQ[Aib]DFVEYLLAGGPSSGAPPPS-NH2
modifications: N-terminus assumed
SMILES: CC[C@H](C)[C@H](NC(=O)[C@H](Cc1ccccc1)NC(=O)[C@@H](NC(=O)CNC(=O)[C@H](CCC(=O)O)NC(=O)C(C)(C)NC(=O)[C@@H](N)Cc1ccc(O)cc1)[C@@H](C)O)C(=O)N[C@@H](CO)C(=O)N[C@@H](CC(=O)O)C(=O)N[C@@H](Cc1ccc(O)cc1)C(=O)N[C@@H](CO)C(=O)N[C@H](C(=O)N[C@@](C)(CC(C)C)C(=O)N[C@@H](CC(C)C)C(=O)N[C@@H](CC(=O)O)C(=O)N[C@@H](CCCCN)C(=O)N[C@@H](CCCCNC(=O)COCCOCCNC(=O)COCCOCCNC(=O)CC[C@H](NC(=O)CCCCCCCCCCCCCCCCCCC(=O)O)C(=O)O)C(=O)N[C@@H](Cc1c[nH]cn1)C(=O)N[C@@H](CCC(N)=O)C(=O)NC(C)(C)C(=O)N[C@@H](CC(=O)O)C(=O)N[C@@H](Cc1ccccc1)C(=O)N[C@H](C(=O)N[C@@H](CCC(=O)O)C(=O)N[C@@H](Cc1ccc(O)cc1)C(=O)N[C@@H](CC(C)C)C(=O)N[C@@H](CC(C)C)C(=O)N[C@@H](C)C(=O)NCC(=O)NCC(=O)N1CCC[C@H]1C(=O)N[C@@H](CO)C(=O)N[C@@H](CO)C(=O)NCC(=O)N[C@@H](C)C(=O)N1CCC[C@H]1C(=O)N1CCC[C@H]1C(=O)N1CCC[C@H]1C(=O)N[C@@H](CO)C(N)=O)C(C)C)[C@@H](C)CC
B4: Example 51 (peptide)
peptide: Y[Aib]EGT[αMePhe(2-F)]ISDYSI[αMeL]LDKK([AEEA-AEEA-γGlu-C20 diacid])HQ[Aib]DFVE[4Pal]LLAGGPSSGAPPPS-NH2
modifications: N-terminus assumed
SMILES: CC[C@H](C)[C@H](NC(=O)[C@H](CO)NC(=O)[C@H](Cc1ccc(O)cc1)NC(=O)[C@H](CC(=O)O)NC(=O)[C@H](CO)NC(=O)[C@@H](NC(=O)[C@](C)(Cc1ccccc1F)NC(=O)[C@@H](NC(=O)CNC(=O)[C@H](CCC(=O)O)NC(=O)C(C)(C)NC(=O)[C@@H](N)Cc1ccc(O)cc1)[C@@H](C)O)[C@@H](C)CC)C(=O)N[C@@](C)(CC(C)C)C(=O)N[C@@H](CC(C)C)C(=O)N[C@@H](CC(=O)O)C(=O)N[C@@H](CCCCN)C(=O)N[C@@H](CCCCNC(=O)COCCOCCNC(=O)COCCOCCNC(=O)CC[C@H](NC(=O)CCCCCCCCCCCCCCCCCCC(=O)O)C(=O)O)C(=O)N[C@@H](Cc1c[nH]cn1)C(=O)N[C@@H](CCC(N)=O)C(=O)NC(C)(C)C(=O)N[C@@H](CC(=O)O)C(=O)N[C@@H](Cc1ccccc1)C(=O)N[C@H](C(=O)N[C@@H](CCC(=O)O)C(=O)N[C@@H](Cc1ccncc1)C(=O)N[C@@H](CC(C)C)C(=O)N[C@@H](CC(C)C)C(=O)N[C@@H](C)C(=O)NCC(=O)NCC(=O)N1CCC[C@H]1C(=O)N[C@@H](CO)C(=O)N[C@@H](CO)C(=O)NCC(=O)N[C@@H](C)C(=O)N1CCC[C@H]1C(=O)N1CCC[C@H]1C(=O)N1CCC[C@H]1C(=O)N[C@@H](CO)C(N)=O)C(C)C
B5: Example 50 (peptide)
peptide: Y[Aib]EGT[αMeF]ISDYSI[αMeL]LDKK([AEEA-AEEA-γGlu-C20 diacid])HQ[Aib]DFVE[4Pal]LLAGGPSSGAPPPS-NH2
modifications: N-terminus assumed
SMILES: CC[C@H](C)[C@H](NC(=O)[C@H](CO)NC(=O)[C@H](Cc1ccc(O)cc1)NC(=O)[C@H](CC(=O)O)NC(=O)[C@H](CO)NC(=O)[C@@H](NC(=O)[C@](C)(Cc1ccccc1)NC(=O)[C@@H](NC(=O)CNC(=O)[C@H](CCC(=O)O)NC(=O)C(C)(C)NC(=O)[C@@H](N)Cc1ccc(O)cc1)[C@@H](C)O)[C@@H](C)CC)C(=O)N[C@@](C)(CC(C)C)C(=O)N[C@@H](CC(C)C)C(=O)N[C@@H](CC(=O)O)C(=O)N[C@@H](CCCCN)C(=O)N[C@@H](CCCCNC(=O)COCCOCCNC(=O)COCCOCCNC(=O)CC[C@H](NC(=O)CCCCCCCCCCCCCCCCCCC(=O)O)C(=O)O)C(=O)N[C@@H](Cc1c[nH]cn1)C(=O)N[C@@H](CCC(N)=O)C(=O)NC(C)(C)C(=O)N[C@@H](CC(=O)O)C(=O)N[C@@H](Cc1ccccc1)C(=O)N[C@H](C(=O)N[C@@H](CCC(=O)O)C(=O)N[C@@H](Cc1ccncc1)C(=O)N[C@@H](CC(C)C)C(=O)N[C@@H](CC(C)C)C(=O)N[C@@H](C)C(=O)NCC(=O)NCC(=O)N1CCC[C@H]1C(=O)N[C@@H](CO)C(=O)N[C@@H](CO)C(=O)NCC(=O)N[C@@H](C)C(=O)N1CCC[C@H]1C(=O)N1CCC[C@H]1C(=O)N1CCC[C@H]1C(=O)N[C@@H](CO)C(N)=O)C(C)C
B6: Example 52 (peptide)
peptide: Y[Aib]EGTFISDYSI[αMeL]LDKK([AEEA-AEEA-γGlu-C20 diacid])HQ[Aib]EFVE[4Pal]LLAGGPSSGAPPPS-NH2
modifications: N-terminus assumed
SMILES: CC[C@H](C)[C@H](NC(=O)[C@H](Cc1ccccc1)NC(=O)[C@@H](NC(=O)CNC(=O)[C@H](CCC(=O)O)NC(=O)C(C)(C)NC(=O)[C@@H](N)Cc1ccc(O)cc1)[C@@H](C)O)C(=O)N[C@@H](CO)C(=O)N[C@@H](CC(=O)O)C(=O)N[C@@H](Cc1ccc(O)cc1)C(=O)N[C@@H](CO)C(=O)N[C@H](C(=O)N[C@@](C)(CC(C)C)C(=O)N[C@@H](CC(C)C)C(=O)N[C@@H](CC(=O)O)C(=O)N[C@@H](CCCCN)C(=O)N[C@@H](CCCCNC(=O)COCCOCCNC(=O)COCCOCCNC(=O)CC[C@H](NC(=O)CCCCCCCCCCCCCCCCCCC(=O)O)C(=O)O)C(=O)N[C@@H](Cc1c[nH]cn1)C(=O)N[C@@H](CCC(N)=O)C(=O)NC(C)(C)C(=O)N[C@@H](CCC(=O)O)C(=O)N[C@@H](Cc1ccccc1)C(=O)N[C@H](C(=O)N[C@@H](CCC(=O)O)C(=O)N[C@@H](Cc1ccncc1)C(=O)N[C@@H](CC(C)C)C(=O)N[C@@H](CC(C)C)C(=O)N[C@@H](C)C(=O)NCC(=O)NCC(=O)N1CCC[C@H]1C(=O)N[C@@H](CO)C(=O)N[C@@H](CO)C(=O)NCC(=O)N[C@@H](C)C(=O)N1CCC[C@H]1C(=O)N1CCC[C@H]1C(=O)N1CCC[C@H]1C(=O)N[C@@H](CO)C(N)=O)C(C)C)[C@@H](C)CC

The binders below were run against T1, human glucose-dependent insulinotropic peptide receptor (human, UniProt P48546 22-466) (assay: cell-based or functional assay).
T1 sequence (looked up): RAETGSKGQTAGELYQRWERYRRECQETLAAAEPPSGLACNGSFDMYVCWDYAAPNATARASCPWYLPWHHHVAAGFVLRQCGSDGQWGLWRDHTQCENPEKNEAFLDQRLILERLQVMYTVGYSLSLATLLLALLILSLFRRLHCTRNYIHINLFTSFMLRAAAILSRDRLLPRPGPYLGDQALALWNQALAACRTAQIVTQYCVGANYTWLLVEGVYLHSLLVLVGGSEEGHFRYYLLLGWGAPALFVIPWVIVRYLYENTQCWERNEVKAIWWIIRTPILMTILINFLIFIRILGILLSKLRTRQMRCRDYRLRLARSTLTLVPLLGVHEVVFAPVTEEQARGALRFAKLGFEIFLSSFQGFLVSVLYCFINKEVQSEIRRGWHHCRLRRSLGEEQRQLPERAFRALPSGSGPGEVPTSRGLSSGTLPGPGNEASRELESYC

**Q.** B1 was tested. Which “hGIPR cAMP Rel EC50” value did it give?
**A.** The value was 0.054 nM.

**Q.** How did the “hGIPR cAMP Rel EC50” value turn out when B2 was run?
**A.** The value was 0.017 nM.

**Q.** How did the “hGIPR cAMP Rel EC50” value turn out when B3 was run?
**A.** The value was 0.0194 nM.

**Q.** B4 was tested. Which “hGIPR cAMP Rel EC50” value did it give?
**A.** Its value is 0.0166 nM.

**Q.** B5 was tested. Which “hGIPR cAMP Rel EC50” value did it give?
**A.** Its value is 0.0212 nM.

**Q.** B6 was tested. Which “hGIPR cAMP Rel EC50” value did it give?
**A.** The value was 0.0194 nM.

Each binder was assayed against human glucagon receptor (human, UniProt P47871 26-477) (assay: cell-based or functional assay).
Chain of human glucagon receptor (P47871 26-477): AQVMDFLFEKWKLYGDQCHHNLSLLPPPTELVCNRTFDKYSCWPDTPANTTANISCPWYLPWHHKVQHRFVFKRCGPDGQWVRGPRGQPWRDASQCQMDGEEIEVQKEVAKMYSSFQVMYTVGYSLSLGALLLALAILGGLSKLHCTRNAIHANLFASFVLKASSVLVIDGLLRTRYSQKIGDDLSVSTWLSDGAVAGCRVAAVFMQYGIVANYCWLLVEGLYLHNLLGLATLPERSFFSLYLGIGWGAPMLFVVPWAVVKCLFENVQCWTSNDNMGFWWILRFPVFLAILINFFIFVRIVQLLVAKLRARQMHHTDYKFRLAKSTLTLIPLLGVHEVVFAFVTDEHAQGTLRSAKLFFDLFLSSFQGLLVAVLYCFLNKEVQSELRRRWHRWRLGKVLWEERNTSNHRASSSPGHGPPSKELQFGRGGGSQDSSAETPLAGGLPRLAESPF

**Q.** B1 was tested. Which “hGcgR cAMP Rel EC50” value did it give?
**A.** Its value is greater than 5000 nM.

**Q.** With B2 as the binder, how does the “hGcgR cAMP Rel EC50” value read?
**A.** The value was greater than 5000 nM.

**Q.** How did the “hGcgR cAMP Rel EC50” value turn out when B3 was run?
**A.** The value was 344 nM.

**Q.** How did the “hGcgR cAMP Rel EC50” value turn out when B4 was run?
**A.** The value was 308 nM.

**Q.** How did the “hGcgR cAMP Rel EC50” value turn out when B5 was run?
**A.** The value was 371 nM.

**Q.** For B6, which “hGcgR cAMP Rel EC50” value is on record?
**A.** Its value is 337 nM.

These binders were tested against human GLP-1 receptor (human, UniProt P43220 24-463) (assay: cell-based or functional assay).

**Q.** Which “hGLP1R cAMP Rel EC50” value does the source give for B1 here?
**A.** The value was greater than 5000 nM.

**Q.** B2 was tested. Which “hGLP1R cAMP Rel EC50” value did it give?
**A.** The value was greater than 5000 nM.

**Q.** For B3, which “hGLP1R cAMP Rel EC50” value is on record?
**A.** Its value is greater than 5000 nM.

**Q.** How did the “hGLP1R cAMP Rel EC50” value turn out when B4 was run?
**A.** Its value is 24.7 nM.

**Q.** For B5, which “hGLP1R cAMP Rel EC50” value is on record?
**A.** Its value is 41 nM.

**Q.** For B6, which “hGLP1R cAMP Rel EC50” value is on record?
**A.** The value was greater than 5000 nM.
